Results reported in patent publication US12565517B2, “Cyclic peptide having CTLA-4 inhibitory activity and use thereof” (GeneFrontier Corporation, priority 2019, dated 2026).

Biological target: T1, CTLA-4 (Homo sapiens, UniProt P16410)
T1 sequence (P16410 36-223): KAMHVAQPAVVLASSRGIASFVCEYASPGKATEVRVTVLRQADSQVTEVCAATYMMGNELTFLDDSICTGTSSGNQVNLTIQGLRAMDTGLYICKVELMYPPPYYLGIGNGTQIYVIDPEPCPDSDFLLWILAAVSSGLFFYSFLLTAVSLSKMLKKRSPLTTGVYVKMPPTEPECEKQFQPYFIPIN
Assay: ELISA binding of clones after Affinity Maturation with random library (Tables 10, 11)
Details: CTLA-4 binding ELISA of clones after Affinity Maturation from random (NNS) library; signal/noise ratio; clones of 4th or 5th round
Description: After each round of Affinity Maturation, the cyclic peptide genes were recovered and subcloned into pET-Mal vector (FIG. 2) in the same manner as described above to perform base sequence analysis. For the 94 single colonies analyzed for sequence, E. coli transformants were inoculated into 100 μL of 2×YT medium containing ampicillin (final concentration 50 μg/mL), incubated at 37° C. for 3-5 hours (OD600=0.5-0.8), then added with IPTG (final concentration 0.5 mM) and incubated at 25° C. overnight. 10 μL of E. coli cultured medium was added with 90 μL of PBS and 40 μL of lysis reagent (20 μL BugBuster Protein Extraction Reagent (Novagen), 20 μL Lysozyme solution 2.5 mg/mL) to lyse E. coli cells for 1 hour at room temperature. The cell lysate was added with 40 μL of 12.5% skim milk solution (TBST) and blocked for 1 hour at room temperature. In parallel, antigen protein was immobilized overnight at 4° C. in 384-well plates at 100 ng/20 μL per well, and each well was washed twice with 100 μL/well of TBST, added with 100 μL/well of 5% skim milk solution (TBST) for blocking for 1 hour at room temperature, and washed twice with 100 μL/well of TBST to obtain antigen-immobilized plates. 20 μL/well of blocking-treated E. coli extract was added to the antigen-immobilized plates and gently stirred at room temperature using a plate mixer. After 1 hour, the plates were washed 5 times with 100 μL/well of TBST, 20 μL/well of anti-FLAG M2-HRP conjugate (1:2000 dilution, Sigma) was added and gently stirred on a plate mixer for 1 hour at room temperature. The plates were washed 5 times with 100 μL/well of TBST, and binding of cyclic peptides to the antigen was detected by 20 μL/well of chromogenic substrate (0.4 mg/mL 3,3′,5,5′-Tetramethyl-benzidine, 0.01% hydrogen peroxide). After 15 minutes of reaction at room temperature, the reaction was stopped with 20 μL/well of 2N HCl, and absorbance at 450 nm was measured using a plate reader (infinite F200: TECAN) (Table 5).
Oligo DNAs of a library were synthesized (see below), in which amino acid residues (positions 1, 4, 8, 10, +1 and +2) (corresponding to X1, […], X8, X10, X+1 and X+2) other than those essential or advantageous for CTLA-4 binding (2H, 3P, 5L, 6P, 7I, 9S, 11H, 12F) identified by alanine scanning were randomized (NNS).
Affinity Maturation was performed in the same manner as described above. The amount of biotinylated CTLA-4 immobilized on the magnetic beads was 10 pmol in the 1st round, 2 pmol in the 2nd round, and 1 pmol in the 3nd-5th rounds, respectively. The washing period was 2 hours for the 1st round, 19 hours for the 2nd round, 67 hours for the 3nd round, 140 hours for the 4th round, and 340 hours for the 5th round. Washing frequency was 1 time (2 hours) in the 1st round, 2 times (every 10 hours) in the 2nd round, 6 times (every 10 hours) in the 3rd round, 14 times (every 10 hours) in the 4th round, and 36 times (every 10 hours) in the 5th round.

Substance | ELISA S/N(SA)
C4m#19-5th2w-NNS6-86 (GGCFHPYLPIWSLHFCRS; C4m#19-5th2w-NNS6-86) | 7.7
C4m#19-5th2w-NNS6-25 (GGCKHPFLPISSHHFCPY; C4m#19-5th2w-NNS6-25) | 21.1
C4m#19-5th2w-NNS6-90 (GGCRHPFLPIVSFHFCPF; C4m#19-5th2w-NNS6-90) | 19.7
C4m#19-5th4w-NN6-59 (GGCLHPHLPIWSLHFCPL; C4m#19-5th4w-NN6-59) | 27.6
C4m#19-5th2w-NNS6-6 (GGCWHPYLPILSLHFCQR; C4m#19-5th2w-NNS6-6) | 10.3
C4m#19-5th4w-NN6-85 (GGCWHPFLPIFSVHFCGC; C4m#19-5th4w-NN6-85) | 22.9
C4m3127-4th-NNS6-26 (GGCAHPALPIWSCHFCPF; C4m3127-4th-NNS6-26) [Clone C4m3127-4th-NNS6-26] | 7.1
C4m#19-5th4w-NN6-61 (GGCPHPMLPIFSVHFCPY; C4m#19-5th4w-NN6-61) | 5.9
C4m#19-5th2w-NNS6-84 (GGCWHPFLPIVSFHFCPF; C4m#19-5th2w-NNS6-84) | 6.4
C4m3127-4th-NNS6-19 (GGCMHPSLPIWSWHFCPH; C4m3127-4th-NNS6-19) [Clone C4m3127-4th-NNS6-19] | 4.1
C4m3127-4th-NNS6-17 (GGCRHPVLPIVSLHFCPG; C4m3127-4th-NNS6-17) [Clone C4m3127-4th-NNS6-17] | 20.4
C4m#19-5th2w-NNS6-4 (GGCFHPWLPISSLHFCPF; C4m#19-5th2w-NNS6-4) | 6.3
C4m#19-5th4w-NN6-89 (GGCMHPFLPIISQHFCAF; C4m#19-5th4w-NN6-89) | 8.3
C4m#19-5th2w-NNS6-26 (GGCLHPFLPIVSIHFCSA; C4m#19-5th2w-NNS6-26) | 5.8
C4m#19-5th4w-NN6-15 (GGCLHPFLPIRSVHFCPF; left off: large carriers; small tags and cut ends) | 39.9
C4m#19-6th4w-NN6-5-3 (GGCWHPFLPILSLHFCGW; left off: large carriers; small tags and cut ends) | 14.7
C4m#19-5th2w-NNS6-45 (GGCRHPFLPIWSVHFCWR; C4m#19-5th2w-NNS6-45) | 11.0
C4m#19-5th4w-NN6-58 (GGCRHPFLPISSIHFCCI; C4m#19-5th4w-NN6-58) | 18.7
C4m#19-5th4w-NN6-24 (GGCWHPWLPIYSHHFCPI; C4m#19-5th4w-NN6-24) | 27.6
C4m#19-5th4w-NN6-56 (GGCWHPFLPIQSLHFCGV; C4m#19-5th4w-NN6-56) | 27.1
C4m#19-5th4w-NN6-67 (GGCLHPFLPIRSVHFCPR; C4m#19-5th4w-NN6-67) | 45.4
C4m#19-5th4w-NN6-62 (GGCQHPYLPIWSFHFCPF; C4m#19-5th4w-NN6-62) | 17.2
C4m#19-5th4w-NN6-25 (GGCLHPVLPIRSRHFCPV; C4m#19-5th4w-NN6-25) | 38.9
C4m#19-5th2w-NNS6-66 (GGCRHPFLPIFSVHFCPF; C4m#19-5th2w-NNS6-66) | 4.4
C4m#19-5th4w-NN6-23 (GGCRHPHLPIWSWHFCGR; C4m#19-5th4w-NN6-23) | 30.2
C4m#19-5th4w-NN6-65-1 (GGCWHPFLPISSPHFCGR; left off: large carriers; small tags and cut ends) | 29.5
C4m#19-5th2w-NNS6-27 (GGCFHPFLPIRSCHFCAR; C4m#19-5th2w-NNS6-27) | 9.9
C4m3127-4th-NNS6-83 (GGCRHPFLPIFSKHFCEL; C4m3127-4th-NNS6-83) [Clone C4m3127-4th-NNS6-83] | 20.7

Substance | ELISA S/N(SA)
C4m#19-5th4w-NN6-79 (GGCWHPVLPIRSCHFCAV; C4m#19-5th4w-NN6-79) | 24.9
C4m3127-4th-NNS6-90 (GGCKHPVLPIVSLHFCPW; C4m3127-4th-NNS6-90) [Clone C4m3127-4th-NNS6-90] | 22.9
C4m#19-5th4w-NN6-14 (GGCWHPFLPIRSVHFCCR; C4m#19-5th4w-NN6-14) | 16.1
C4m#19-5th2w-NNS6-53 (GGCLHPWLPIRSFHFCGA; C4m#19-5th2w-NNS6-53) | 11.4
C4m#19-5th4w-NN6-47 (GGCPHPWLPIFSRHFCPV; C4m#19-5th4w-NN6-47) | 34.2
C4m#19-5th2w-NNS6-68 (GGCLHPWLPIVSCHFCPR; C4m#19-5th2w-NNS6-68) | 4.6
C4m#19-5th4w-NN6-30 (GGCWHPFLPIMSFHFCPY; C4m#19-5th4w-NN6-30) | 16.7
C4m#19-5th4w-NN6-49 (GGCMHPYLPIRSFHFCSC; C4m#19-5th4w-NN6-49) | 4.0
C4m3127-4th-NNS6-89 (GGCWHPFLPIFSAHFCMR; C4m3127-4th-NNS6-89) [Clone C4m3127-4th-NNS6-89] | 6.6
C4m3127-4th-NNS6-20 (GGCLHPFLPILSLHFCPF; C4m3127-4th-NNS6-20) [Clone C4m3127-4th-NNS6-20] | 4.4
C4m3127-4th-NNS6-12 (GGCSHPFLPIRSRHFCPF; C4m3127-4th-NNS6-12) [Clone C4m3127-4th-NNS6-12] | 15.8
C4m3127-4th-NNS6-66 (GGCAHPHLPIRSVHFCSF; C4m3127-4th-NNS6-66) [Clone C4m3127-4th-NNS6-66] | 4.8
C4m3127-4th-NNS6-79 (GGCLHPFLPIRSVHFCLR; C4m3127-4th-NNS6-79) [Clone C4m3127-4th-NNS6-79] | 12.8
C4m#19-5th4w-NN6-93 (GGCCHPWLPIVSTHFCGL; C4m#19-5th4w-NN6-93) | 28.9
C4m#19-5th4w-NN6-4 (GGCRHPYLPIVSRHFCPF; C4m#19-5th4w-NN6-4) | 31.6
C4m#19-5th4w-NN6-6 (GGCMHPFLPIKSSHFCRK; C4m#19-5th4w-NN6-6) | 16.1
C4m#19-5th4w-NN6-74 (GGCFHPFLPIYSWHFCAR; C4m#19-5th4w-NN6-74) | 15.1
C4m#19-5th4w-NN6-94 (GGCLHPFLPIYSLHFCPC; C4m#19-5th4w-NN6-94) | 5.0
C4m#19-5th2w-NNS6-61 (GGCCHPWLPIRSVHFCPF; C4m#19-5th2w-NNS6-61) | 4.3
C4m#19-5th2w-NNS6-43 (GGCRHPFLPIWSSHFCAA; C4m#19-5th2w-NNS6-43) | 4.8
C4m3127-4th-NNS6-94 (GGCRHPVLPIWSSHFCPW; C4m3127-4th-NNS6-94) [Clone C4m3127-4th-NNS6-94] | 5.9
C4m#19-5th4w-NN6-45 (GGCRHPWLPIWSVHFCGV; C4m#19-5th4w-NN6-45) | 15.8
C4m3127-4th-NNS6-80 (GGCGHPFLPIFSLHFCPR; C4m3127-4th-NNS6-80) [Clone C4m3127-4th-NNS6-80] | 12.8
C4m#19-5th4w-NN6-9 (GGCFHPYLPIRSWHFCGR; C4m#19-5th4w-NN6-9) | 28.8
C4m#19-5th4w-NN6-72 (GGCWHPWLPIVSVHFCGC; C4m#19-5th4w-NN6-72) | 4.6
C4m#19-5th2w-NNS6-12 (GGCWHPYLPIRSVHFCGR; C4m#19-5th2w-NNS6-12) | 20.4
C4m#19-5th4w-NN6-40 (GGCFHPFLPIRSHHFCML; C4m#19-5th4w-NN6-40) | 4.0

Same assay, conditions: S/N ratio of CTLA-4 binding in ELISA; clones from 4th or 5th round of Affinity Maturation from random (NNS) library

Substance | ELISA S/N(SA)
C4m#19-5th2w-NNS6-93 (GGCFHPFLPIQSRHFCCR; C4m#19-5th2w-NNS6-93) | 3.4
C4m3127-4th-NNS6-95 (GGCWHPVLPIRSGHFCSR; C4m3127-4th-NNS6-95) [Clone C4m3127-4th-NNS6-95] | 3.4
